Measurements from patent US20200362026A1 (INSTITUTE FOR RESEARCH IN BIOMEDICINE, published 2020).
One block for each binder: values may come before it.

Legend:
mouse GM-CSF = target: T1, mouse GM-CSF (mouse, UniProt P01587 18-141); test: ELISA
T1 sequence (looked up): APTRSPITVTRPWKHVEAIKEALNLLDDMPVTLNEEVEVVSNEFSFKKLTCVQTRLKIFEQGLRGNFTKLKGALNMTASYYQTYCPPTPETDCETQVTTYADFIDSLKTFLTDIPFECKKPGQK

rat GM-CSF = target: T2, rat GM-CSF (rat, UniProt P48750 18-144); test: ELISA
T2 sequence (looked up): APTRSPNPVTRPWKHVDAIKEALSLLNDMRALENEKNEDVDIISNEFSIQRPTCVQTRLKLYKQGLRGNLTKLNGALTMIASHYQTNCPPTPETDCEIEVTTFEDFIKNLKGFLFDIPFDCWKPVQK

[1] = target: T3, human GM-CSF (granulocyte macrophage-colony stimulating factor) (human, UniProt P04141 18-144); test: SPR (ProteOn), mAb captured on protein A, GM-CSF as analyte, Langmuir fit
T3 construct: Soluble cytokine used in ELISA, SPR, TF-1 bioassay and immune complex formation; also called recombinant GM-CSF
Description: (§1) The kinetics of binding was determined by surface plasmon resonance (SPR). […] HEPES buffered saline (HBS) (10 mM HEPES, pH 7.4, 150 mM NaCl, 3 mM EDTA, 0.005% surfactant Tween-20) was used as running buffer. All injections were made at flow rate of 100 µl/min. […] Injection time and dissociation time were 120 s and 600 s, respectively. Each binding interaction of mAbs with GM-CSF was assessed using a ProteON XPR36 instrument (Biorad) and data processed with ProteOn Manager Software. Ka, Kd and KD were calculated applying the Langmuir fit model.

[2] = target: T3, human GM-CSF (granulocyte …); test: ELISA on human GM-CSF
Description: All antibodies were recombinantly produced as IgG1 by transient transfection of HEK 293 Freestyle Cells (Invitrogen) using polyethylenimine (PEI). The antibodies were then tested for binding to human GM-CSF by ELISA. […] The EC50 values (ng/ml) were determined by ELISA and calculated for every sample by nonlinear regression analysis using GraphPad Prism 5 software.

FcγRIIb [3] = target: T4, FcγRIIb (UniProt P31994 43-310, limits assumed); test: flow cytometry, TZM-bl cells expressing FcγRIIb, immune complex with low GM-CSF
T4 construct: whole, on cells; also called FcgRIIb; Fcγ receptor IIb
T4 sequence (looked up): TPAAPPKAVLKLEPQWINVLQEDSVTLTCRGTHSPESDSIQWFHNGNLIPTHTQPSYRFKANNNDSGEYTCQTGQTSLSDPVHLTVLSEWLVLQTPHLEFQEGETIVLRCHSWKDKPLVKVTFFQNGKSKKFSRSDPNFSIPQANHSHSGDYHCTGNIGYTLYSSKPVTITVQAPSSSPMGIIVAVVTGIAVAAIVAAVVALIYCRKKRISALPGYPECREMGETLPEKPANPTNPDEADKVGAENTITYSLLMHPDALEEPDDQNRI
Description: (§2) Expression of specific FcγRs was assessed by staining TZM-b1 cells with FITC-conjugated anti-CD64 (anti-FcγRI), anti-CD32 (anti-FcγRIIa and anti-FcγRIIb) and anti-CD16 (anti-FcγRIIIa) antibodies (all from BD Pharmingen). Untrasfected and transfected TZM-b1 cells were washed with staining buffer (PBS with 10% Fetal Bovine Serum and 2 mM EDTA) and seeded in 96-well-plates at a density of 50,000 cells per well. […] The LALA versions of all antibodies and a mAb with a different specificity were included as controls. Samples were incubated at 37° C. for 30 min to allow the formation of immune complexes and then cooled down to 4° C. before adding them to TZM-b1 cells for 30 min. Cells were washed twice and stained with anti-human IgG Fcγ fragment specific F(ab′)2 fragment (Jackson ImmunoResearch). Samples were analyzed on BD FACSCanto (BD Biosciences) and median intensity fluorescence was analyzed and compared between samples.
(§3) To address the engagement of Fcγ receptors, immune complexes formed between GM-CSF and multispecific antibodies were tested for their capacity to bind to TZM-b1 cells expressing FcγRIIa and FcγRIIb receptors. Multispecific antibodies were mixed with 0.05 μg/ml of GM-CSF, or staining buffer. Samples were incubated at 37° C. for 30 min to allow the formation of immune complexes and then cooled down to 4° C. before adding them to TZM-b1 cells for 30 minutes. Cells were washed twice and stained with anti-human IgG Fcγ fragment specific F(ab′)2 fragment. Samples were analyzed on BD FACSCanto (BD Biosciences) and median intensity fluorescence was analyzed and compared between samples.

FcγRIIb [4] = target: T4, FcγRIIb; test: flow cytometry, TZM-bl cells expressing FcγRIIb, mAb alone (w/o GM-CSF)
Description: as §2, §3

[5] = target: T3, human GM-CSF (granulocyte …); test: SPR; GM-CSF injected at 400, 200, 100, 50, 25 nM and buffer over Ts1GC1; 120 s association, 600 s dissociation
Description: as §1
All multispecific antibodies were tested for binding to GM-CSF by ELISA.

[6] = target: T3, human GM-CSF (granulocyte …); test: ELISA on GM-CSF
FcγRIIa [7] = target: T5, FcγRIIa (UniProt P12318 34-317, limits assumed); test: flow cytometry, TZM-bl cells expressing FcγRIIa, immune complex with high GM-CSF
T5 construct: whole, on cells; also called FcgRIIa; Fcγ receptor IIa
T5 sequence (looked up): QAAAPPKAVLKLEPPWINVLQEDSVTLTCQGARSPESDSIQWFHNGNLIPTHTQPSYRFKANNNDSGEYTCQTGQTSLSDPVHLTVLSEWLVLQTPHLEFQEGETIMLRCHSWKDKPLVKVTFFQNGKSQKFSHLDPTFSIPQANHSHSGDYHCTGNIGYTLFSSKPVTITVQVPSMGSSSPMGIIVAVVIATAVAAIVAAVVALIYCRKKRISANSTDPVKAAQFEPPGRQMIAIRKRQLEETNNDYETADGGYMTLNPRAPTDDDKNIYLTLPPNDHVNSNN
Description: as §3

FcγRIIa [8] = target: T5, FcγRIIa; test: flow cytometry, TZM-bl cells expressing FcγRIIa, immune complex with low GM-CSF
Description: as §2, §3

FcγRIIa [9] = target: T5, FcγRIIa; test: flow cytometry, TZM-bl FcγRIIa cells; average ratio of binding in presence and in absence of GM-CSF
Description: as §3

[10] = target: T3, human GM-CSF (granulocyte …); test: cell-based or functional assay
FcγRIIa [11] = target: T5, FcγRIIa; test: flow cytometry, TZM-bl cells expressing FcγRIIa, mAb alone (w/o GM-CSF)
Description: as §2, §3

FcγRIIb [12] = target: T4, FcγRIIb; test: flow cytometry, TZM-bl cells expressing FcγRIIb, immune complex with high GM-CSF
Description: as §2, §3

FcγRIIb [13] = target: T4, FcγRIIb; test: flow cytometry, TZM-bl FcγRIIb cells; average ratio of binding in presence and in absence of GM-CSF
Description: as §2, §3

[14] = target: T3, human GM-CSF (granulocyte …); test: cell-based or functional assay; remark: listed apart in the source

T3 sequence (P04141 18-144 limits assumed): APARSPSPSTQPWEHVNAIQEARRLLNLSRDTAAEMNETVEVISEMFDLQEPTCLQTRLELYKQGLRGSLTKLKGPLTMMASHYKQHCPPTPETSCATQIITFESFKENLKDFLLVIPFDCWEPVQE

B1: GCA7 (antibody, human IgG1, kappa, V domains shown)
VH: GVQLVQSGGGLVQPGGSLRLSCAASGFTVSTNYMSWVRQAPGKGLEWVSILYAGGVTRYADSVKTRFTISRDNSKNTLFLQMNALSAEDTAIYYCAKHYDSGYSTIDHFDSWGQGTLVTVSS
VL: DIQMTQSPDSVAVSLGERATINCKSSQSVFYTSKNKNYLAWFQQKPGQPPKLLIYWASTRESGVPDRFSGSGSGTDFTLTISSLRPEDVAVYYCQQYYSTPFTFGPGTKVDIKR
notes: also called GCA7 antibody
- binding result (mouse GM-CSF): no binding
- binding result (rat GM-CSF): no binding
- Kd [1]: 0.38 nM
- koff [1]: 6e-05 s⁻¹
- kon [1]: 240000 M⁻¹ s⁻¹
- EC50 [2]: 0.187 µg/mL

B2: GCA21 (antibody, IgG1, V domains shown)
VH: QVQLMESGGGVVQPGRSLRLSCSAFGFTFSNYPMHWVRQAPGKGLEWVAIILPDGNRKNYGRSVTGRFTISRDNSNNSLYLQMNNLTTEDTAMYYCTRDGTYYSNGGVYQTYRRFFDFWGRGTLVTVSS
VL: DIQMTQSPSTLSTSVGDRVTITCRASQNILNWLAWYQQKPGNAPNLLIYKASDLQSGVPSRFSGSGSGTEFTLTISSLQPDDFATYYCQHYNSYPLTFGGGTKVEIKR
notes: also called GCA21 antibody
- binding result (mouse GM-CSF): no binding
- binding result (rat GM-CSF): no binding
- Kd [1]: 0.69 nM
- koff [1]: 0.00065 s⁻¹
- kon [1]: 950000 M⁻¹ s⁻¹
- EC50 [2]: 0.0594 µg/mL

B5: GCB59 (antibody, IgG1, V domains shown)
VH: EVQLVESGGDLVKAGGSLRLSCAVSGLSFSSSGMNWVRQAPGKGLEWISSISGSQNYKYYADSVKGRFVVSRDNARNFLYLQMDSLRAEDTAVYFCVGGFPYWLPPSDFSGFHVWGQGTTVTVSS
VL: SYVLTQPPSVSVAPGQTASLTCGGTNIGSKSVHWYQQKAGQAPVLVVYADNDRPSGVPERFSGSNSGNTATLTISRVEAEDESDYFCQVWDGNTDHVVFGGGTKLTVLG
notes: also called GCB59 antibody
- binding result (mouse GM-CSF): no binding
- binding result (rat GM-CSF): no binding
- Kd [1]: 0.68 nM
- koff [1]: 0.0012 s⁻¹
- kon [1]: 1.7e+06 M⁻¹ s⁻¹
- EC50 [2]: 0.308 µg/mL

B6: Namilumab (antibody, V domains shown)
VH: QVQLVQSGAEVKKPGASVKVSCKAFGYPFTDYLLHWVRQAPGQGLEWVGWLNPYSGDTNYAQKFQGRVTMTRDTSISTAYMELSRLRSDDTAVYYCTRTTLISVYFDYWGQGTMVTVSS
VL: DIQMTQSPSSVSASVGDRVTIACRASQNIRNILNWYQQRPGKAPQLLIYAASNLQSGVPSRFSGSGSGTDFTLTINSLQPEDFATYYCQQSYSMPRTFGGGTKLEIK
- Kd [1]: 0.24 nM
- koff [1]: 7.7e-05 s⁻¹
- kon [1]: 310000 M⁻¹ s⁻¹
- fold greater concentration than Ts1GC2a, less stringent conditions [14]: 690 fold
- IC90 less stringent conditions (50 pg/ml GM-CSF, 1,000 TF-1/well) [10]: 0.177 µg/mL
- IC90 more stringent conditions (500 pg/ml GM-CSF, 1,000 TF-1/well) [10]: 1.97 µg/mL
- IC90 stringent conditions (50 pg/ml GM-CSF, 10,000 TF-1/well) [10]: 0.798 µg/mL
- IC90 very stringent conditions (500 pg/ml GM-CSF, 10,000 TF-1/well) [10]: 19.8 µg/mL
- EC50 [2]: 0.0753 µg/mL

Continued, values first:

- binding result (mouse GM-CSF): no binding
- binding result (rat GM-CSF): no binding
- Kd [1]: 0.18 nM
- koff [1]: 0.00011 s⁻¹
- kon [1]: 660000 M⁻¹ s⁻¹
- EC50 [2]: 0.0614 µg/mL
B3: GCE536 (antibody, human IgG1, kappa, V domains shown)
VH: QLQLVQSGTEVKKPGASVKVSCKSSGYVFTSYYLVWVRQAPGQGLEWMATISPGDVNTSYEQRFQGRVTVTTDASTNTVDMELRSLRSEDTAVYYCARGPRSKPPYLYFALDVWGQGTAVTVSS
VL: EIVLTQSPGTLSLSPGETAILSCRASQSVSSSLLAWYQQKPGQAPRLLIYGASNRATGIRGRFSGSGSGTDFTLTISRLEPEDFVLYYCQHYGSRVTFGQGTKLEIKR
notes: also called GCE536 antibody

- MFI (FcγRIIb [3]): 528000 MFI
- MFI (FcγRIIb [4]): 350000 MFI
- Kd [5]: 0.0875 nM
- koff [5]: 3.46e-05 s⁻¹
- kon [5]: 395000 M⁻¹ s⁻¹
- EC50 [6]: 0.027 µg/mL
- MFI (FcγRIIa [7]): 216000 MFI
- MFI (FcγRIIa [8]): 118000 MFI
- Average RATIO FcgRIIa (FcγRIIa [9]): 3.18 ratio
- IC90 less stringent conditions (50 pg/ml GM-CSF, 1,000 TF-1/well) [10]: 0.000352 µg/mL
- IC90 more stringent conditions (500 pg/ml GM-CSF, 1,000 TF-1/well) [10]: 0.00296 µg/mL
- IC90 stringent conditions (50 pg/ml GM-CSF, 10,000 TF-1/well) [10]: 0.000283 µg/mL
- IC90 very stringent conditions (500 pg/ml GM-CSF, 10,000 TF-1/well) [10]: 0.00281 µg/mL
- MFI (FcγRIIa [11]): 52400 MFI
- MFI (FcγRIIb [12]): 1.23e+06 MFI
- Average RATIO FcgRIIb (FcγRIIb [13]): 2.51 ratio
B4: Ts1GC1 trispecific antibody (antibody, human IgG1, kappa)
heavy: not shown
light: DIQMTQSPSTLSTSVGDRVTITCRASQNILNWLAWYQQKPGNAPNLLIYKASDLQSGVPSRFSGSGSGTEFTLTISSLQPDDFATYYCQHYNSYPLTFGGGTKVEIKRTVAAPSVFIFPPSDEQLKSGTASVVCLLNNFYPREAKVQWKVDNALQSGNSQESVTEQDSKDSTYSLSSTLTLSKADYEKHKVYACEVTHQGLSSPVTKSFNRGEC
notes: Trispecific hexavalent IgG1, construct type Ts1; specificities GCA21 + GCA7 + GCB59; also called TsGC1
